Experiment [1] addresses T1, c-Met (UniProt P08581 25-932, limits assumed).
T1 construct: also called 항원인 c-Met
Nature of the experiment: SPR, Biacore T100; antibody (from GSKO 301 GS cells) captured on Human Fab binder on CM5 chip, c-Met as analyte 25 to 0.78 nmol, 1:1 kinetic fit.

Experiment [2] deals with T1, c-Met. Nature of the experiment: SPR, Biacore T100; antibody (from GSKO GLUD1 301 GS cells) captured on Human Fab binder on CM5 chip, c-Met as analyte 25 to 0.78 nmol, 1:1 kinetic fit. (In general: Surface plasmon resonance follows binding to a sensor surface in real time, without labels.)
In experiment [3] the target is T1, c-Met. Put plainly: SPR, Biacore T100; antibody (from GSKO 301 GS cells) captured on Human Fab binder on CM5 chip, c-Met as analyte, 1:1 kinetic fit; rounded form of the value in r2.
For experiment [4], the target named is T1, c-Met. Put plainly: SPR, Biacore T100; antibody (from GSKO GLUD1 301 GS cells) captured on Human Fab binder on CM5 chip, c-Met as analyte, 1:1 kinetic fit; rounded form of the value in r2.

T1 sequence (P08581 25-932 limits assumed): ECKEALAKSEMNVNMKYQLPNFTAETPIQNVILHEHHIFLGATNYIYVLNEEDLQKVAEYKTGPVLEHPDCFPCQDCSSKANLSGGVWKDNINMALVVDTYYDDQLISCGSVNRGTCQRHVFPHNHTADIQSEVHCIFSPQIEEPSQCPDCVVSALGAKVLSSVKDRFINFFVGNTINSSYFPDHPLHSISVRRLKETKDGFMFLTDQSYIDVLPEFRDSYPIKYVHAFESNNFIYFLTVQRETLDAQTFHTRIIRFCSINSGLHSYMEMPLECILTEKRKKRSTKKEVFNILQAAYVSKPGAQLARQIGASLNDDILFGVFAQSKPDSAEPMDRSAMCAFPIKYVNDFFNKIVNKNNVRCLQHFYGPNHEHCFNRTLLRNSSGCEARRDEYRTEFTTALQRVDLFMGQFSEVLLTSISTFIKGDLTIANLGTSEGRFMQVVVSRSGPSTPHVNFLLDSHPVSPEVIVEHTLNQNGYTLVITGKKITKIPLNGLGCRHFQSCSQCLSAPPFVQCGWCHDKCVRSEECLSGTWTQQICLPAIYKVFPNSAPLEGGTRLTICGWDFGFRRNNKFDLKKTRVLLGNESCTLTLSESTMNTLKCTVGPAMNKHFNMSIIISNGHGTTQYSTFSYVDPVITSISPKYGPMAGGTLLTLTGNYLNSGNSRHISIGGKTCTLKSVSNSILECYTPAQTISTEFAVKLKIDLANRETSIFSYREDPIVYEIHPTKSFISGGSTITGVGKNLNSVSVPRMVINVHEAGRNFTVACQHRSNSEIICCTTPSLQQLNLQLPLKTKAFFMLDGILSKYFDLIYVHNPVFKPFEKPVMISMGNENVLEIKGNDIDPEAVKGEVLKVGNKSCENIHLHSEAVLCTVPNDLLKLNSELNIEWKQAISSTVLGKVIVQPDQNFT

B1: 항 c-Met 항체 L3-1Y/IgG2 (antibody, V domains shown)
VH: EVQLVESGGGLVQPGGSLRLSCAASGFTFTDYYMSWVRQAPGKGLEWLGFIRNKANGYTTEYSASVKGRFTISRDNSKNTLYLQMNSLRAEDTAVYYCARDNWFAYWGQGTLVTVSS
VL: DIQMTQSPSSLSASVGDRVTITCKSSQSLLASGNQNNYLAWYQQKPGKAPKMLIIWASTRVSGVPSRFSGSGSGTDFTLTISSLQPEDFATYYCQQSYSRPYTFGQGTKVEIKR
notes: also called S301-12A37 standard; S301-12A37
Usually Kd stands for the free concentration of one partner at which half of the binding sites on the other are occupied at equilibrium, for simple one-to-one binding. The low end stands for tighter binding, the high end for weaker binding. On to B1, for which the Kd in experiment [1] is 0.0573 nM; in experiment [2] it was 0.0926 nM; in experiment [3], 0.06 nM; in experiment [4], 0.09 nM.

The record behind these values is KR20160086217A (dated 2016).
